# Data published in PMC8248988, “A signal capture and proofreading mechanism for the KDEL-receptor explains selectivity and dynamic range in ER retrieval” (eLife, 2021).
# Ends that are not written are not given here.
# T1: TAEHDEL retrieval signal peptide
# T1 chain: TAEHDEL
# T2: TAEHDEL-CONH retrieval signal peptide
# T2 chain: TAEHDEL-NH2
# T3: TAEKDEL retrieval signal peptide (BiP) (Homo sapiens)
# T3 chain: TAEKDEL
# T4: TAEDDEL retrieval signal peptide
# T4 chain: TAEDDEL
# T5: TAERDEL retrieval signal peptide
# T5 chain: TAERDEL
# How the values were obtained:
# [1] = target: [3H]-TAEHDEL retrieval-signal peptide K to H at position -4 relative to TAEKDEL (K651H in human BiP numbering) (UniProt P11021); assay: radioligand filter-binding assay, direct titration (scintillation counting); conditions: 20°C, 40 mM Sodium Chloride, 20 mM MES pH 5.4 (default), the buffers used for the other pH values of Figure 3f (up to pH 7.0) are not stated
# [3H]-TAEHDEL retrieval-signal peptide K to H at position -4 relative to TAEKDEL (K651H in human BiP numbering), sequence (P11021 whole entry K651H, looked up, tested part not stated): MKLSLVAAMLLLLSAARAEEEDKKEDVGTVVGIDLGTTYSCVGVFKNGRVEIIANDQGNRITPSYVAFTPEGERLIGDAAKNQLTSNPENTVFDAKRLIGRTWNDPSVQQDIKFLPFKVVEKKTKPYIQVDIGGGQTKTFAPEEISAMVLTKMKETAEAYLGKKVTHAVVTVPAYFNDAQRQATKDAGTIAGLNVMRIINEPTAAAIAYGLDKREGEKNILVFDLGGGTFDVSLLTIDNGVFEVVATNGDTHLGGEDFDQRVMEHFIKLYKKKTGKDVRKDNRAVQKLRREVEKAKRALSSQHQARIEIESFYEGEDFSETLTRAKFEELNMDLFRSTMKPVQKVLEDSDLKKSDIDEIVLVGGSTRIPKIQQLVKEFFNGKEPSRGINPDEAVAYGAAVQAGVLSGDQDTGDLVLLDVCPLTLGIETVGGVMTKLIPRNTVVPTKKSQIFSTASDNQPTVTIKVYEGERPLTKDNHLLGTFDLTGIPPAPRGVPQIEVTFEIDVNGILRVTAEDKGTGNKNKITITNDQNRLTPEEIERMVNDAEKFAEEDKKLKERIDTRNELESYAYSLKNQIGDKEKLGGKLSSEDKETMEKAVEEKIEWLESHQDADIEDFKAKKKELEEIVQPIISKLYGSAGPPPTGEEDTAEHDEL
# [2] = target: [3H]-TAEKDEL retrieval-signal peptide (UniProt P11021); assay: as above; conditions: pH 5.4; 20°C; 40 mM Sodium Chloride; 20 mM MES pH 5.4 (default); the buffers used for the other pH values of Figure 3f (up to pH 7.0) are not stated
# [3H]-TAEKDEL retrieval-signal peptide, sequence (P11021 whole entry, looked up, tested part not stated): as the sequence (P11021 whole entry K651H, looked up, tested part not stated) above, with H651K counted along it
# [3] = target: [3H]-TAEKDEL retrieval-signal peptide (UniProt P11021); assay: in vitro binding assay of Bräuer et al. 2019 (not described here; presumably the same [3H]-TAEKDEL filter-binding assay); conditions: pH 6.4; cited from earlier work
# [4] = target: TAERDEL retrieval-signal peptide (unlabelled) K to R at position -4 relative to TAEKDEL (K651R in human BiP numbering) (UniProt P11021); assay: radioligand filter-binding assay, competition of unlabelled peptide against [3H]-TAEHDEL; conditions: pH 5.4; 20°C; 40 mM Sodium Chloride; 20 mM MES pH 5.4 (default assay buffer 'unless stated otherwise'; pH not restated for this experiment)
# TAERDEL retrieval-signal peptide (unlabelled) K to R at position -4 relative to TAEKDEL (K651R in human BiP numbering), sequence (P11021 whole entry K651R, looked up, tested part not stated): as the sequence (P11021 whole entry K651H, looked up, tested part not stated) above, with H651R counted along it
# [5] = target: TAEHDEL retrieval-signal peptide (unlabelled) K to H at position -4 relative to TAEKDEL (K651H in human BiP numbering) (UniProt P11021); assay: as above; conditions: pH 5.4; 20°C; 40 mM Sodium Chloride; 20 mM MES pH 5.4 (default assay buffer 'unless stated otherwise'; pH not restated for this experiment)
# TAEHDEL retrieval-signal peptide (unlabelled) K to H at position -4 relative to TAEKDEL (K651H in human BiP numbering), sequence (P11021 whole entry K651H, looked up, tested part not stated): as the sequence (P11021 whole entry K651H, looked up, tested part not stated) above
# [6] = target: TAEKDEL retrieval-signal peptide (unlabelled) (UniProt P11021); assay: as above; conditions: pH 5.4; 20°C; 40 mM Sodium Chloride; 20 mM MES pH 5.4 (default assay buffer 'unless stated otherwise'; pH not restated for this experiment)
# TAEKDEL retrieval-signal peptide (unlabelled), sequence (P11021 whole entry, looked up, tested part not stated): as the sequence (P11021 whole entry K651H, looked up, tested part not stated) above, with H651K counted along it
# [7] = target: T1, TAEHDEL retrieval signal peptide; assay: competition binding with [3H]-TAEHDEL
# [8] = target: T2, TAEHDEL-CONH retrieval signal peptide; assay: competition binding with [3H]-TAEHDEL
# [9] = target: T3, TAEKDEL retrieval signal peptide (BiP); assay: [3H]-peptide filter binding assay, pH 5.4
# [10] = target: T1, TAEHDEL retrieval signal peptide; assay: [3H]-peptide filter binding assay, pH 5.4
# [11] = target: T4, TAEDDEL retrieval signal peptide; assay: peptide binding assay
# [12] = target: T5, TAERDEL retrieval signal peptide; assay: peptide binding assay
# [13] = target: T3, TAEKDEL retrieval signal peptide (BiP); assay: [3H]-peptide filter binding assay
# [14] = target: T1, TAEHDEL retrieval signal peptide; assay: [3H]-peptide filter binding assay
Molecule,KD ([1]; pH 5.4) [µM],fraction of maximal binding ([1]; pH 6.4),KD [2] [µM],fraction of maximal binding [3] [%],"KD (apparent, from IC50) [4]","KD (apparent, from IC50) [5]","KD (apparent, from IC50) [6]",IC50 [7] [µM],IC50 [8] [µM],Kd [9] [µM],Kd [10] [µM],Kd [11] [µM],Kd [12] [µM],Kd [13] [µM],Kd [14] [µM]
"KDEL receptor 2 (KDELR2, ER lumen protein-retaining receptor 2), wild type",0.26 ± 0.04,~ 60% maximal binding,1.9 ± 0.46,<20,KD 2.71 µM,KD 0.24 µM,KD 1.94 µM,,,,,,,,
KDEL receptor 2 (protein) MNIFRLTGDLSHLAAIIILLLKIWKSRSCAGISGKSQLLFALVFTTRYLDLFTSFISLYNTSMKLIYIACSYATVYLIYMKFKATYDGNHDTFRVEFLIVPVGGLSFLVNHDFSPLEILWTFSIYLESVAILPQLFMISKTGEAETITTHYLFFLGLYRALYLVNWIWRYYFEGFFDLIAVVAGVVQTVLYCDFFYLYVTKVLKGKKLSLPA,,,,,,,,19,1700,1.9,0.26,14.9,2.71,1.94,0.24
